T1: His-SUMO-Met4-Strep-tagII-HA (S. cerevisiae, UniProt P32389 1-672)
T1 construct: Met4, transcription factor of the MET regulon, Saccharomyces cerevisiae; MET4 ORF cloned into the pET His6 Sumo vector; fractions with pure, full-length Met4 were pooled; No cleavage of His-SUMO is described; also called recombinant Met4; bacterially purified Met4; source: E. coli BL21, purified (Ni-NTA, Strep-Tactin Sepharose); not shown: HA, C-terminal, kept
T1 sequence (looked up): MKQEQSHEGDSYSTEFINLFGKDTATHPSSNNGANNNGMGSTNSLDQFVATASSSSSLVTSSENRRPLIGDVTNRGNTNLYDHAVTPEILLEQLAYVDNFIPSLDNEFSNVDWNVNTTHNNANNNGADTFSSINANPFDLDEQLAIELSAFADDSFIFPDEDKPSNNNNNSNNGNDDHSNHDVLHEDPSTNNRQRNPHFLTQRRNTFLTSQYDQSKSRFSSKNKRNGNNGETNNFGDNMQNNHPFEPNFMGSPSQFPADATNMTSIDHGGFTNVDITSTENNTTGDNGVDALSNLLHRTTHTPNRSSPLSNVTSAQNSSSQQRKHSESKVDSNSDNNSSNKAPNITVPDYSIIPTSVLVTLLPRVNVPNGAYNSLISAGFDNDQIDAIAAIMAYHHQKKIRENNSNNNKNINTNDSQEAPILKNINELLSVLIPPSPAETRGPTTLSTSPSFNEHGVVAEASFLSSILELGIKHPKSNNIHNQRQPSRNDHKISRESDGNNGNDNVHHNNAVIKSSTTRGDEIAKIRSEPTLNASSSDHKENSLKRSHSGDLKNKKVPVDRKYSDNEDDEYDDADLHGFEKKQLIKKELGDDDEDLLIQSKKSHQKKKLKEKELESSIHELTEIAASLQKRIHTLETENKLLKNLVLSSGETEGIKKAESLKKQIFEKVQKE

B1: Met30-Flag (natural protein, S. cerevisiae, UniProt P39014 1-640, looked up)
chain: MRRERQRMMSFEDKDKDDLDNSNSNNSSEMTDTAMMPPLKRLLITGSSDDLAQGSSGKKKMTMATRSPSSSPDLATNDSGTRVQPLPEYNFTKFCYRHNPDIQFSPTHTACYKQDLKRTQEINANIAKLPLQEQSDIHHIISKYSNSNDKIRKLILDGILSTSCFPQLSYISSLVTHMIKIDFISILPQELSLKILSYLDCQSLCNATRVCRKWQKLADDDRVWYHMCEQHIDRKCPNCGWGLPLLHMKRARIQQNSTGSSSNADIQTQTTRPWKVIYRERFKVESNWRKGHCRIQEFKGHMDGVLTLQFNYRLLFTGSYDSTIGIWDLFTGKLIRRLSGHSDGVKTLYFDDRKLITGSLDKTIRVWNYITGECISTYRGHSDSVLSVDSYQKVIVSGSADKTVKVWHVESRTCYTLRGHTEWVNCVKLHPKSFSCFSCSDDTTIRMWDIRTNSCLKVFRGHVGQVQKIIPLTIKDVENLATDNTSDGSSPQDDPTMTDGADESDTPSNEQETVLDENIPYPTHLLSCGLDNTIKLWDVKTGKCIRTQFGHVEGVWDIAADNFRIISGSHDGSIKVWDLQSGKCMHTFNGRRLQRETQHTQTQSLGDKVAPIACVCIGDSECFSGDEFGCVKMYKFDLND
notes: Met30, F-box protein of the SCF^Met30 E3 ubiquitin ligase, Saccharomyces cerevisiae (CEN.PK background); endogenous locus tagged at the C-terminus; 23 cysteines; Isolated from yeast as a Met30-Flag complex, so other SCF components may be on the beads; Cysteines are reduced or oxidised depending on the IP condition (+DTT, -DTT, +diamide); also called SCF^Met30-Flag; Flag-tagged Met30; source: S. …
B2: Met30 C414S (Flag-tagged) (natural protein, S. cerevisiae, UniProt P39014 1-640, looked up)
chain: MRRERQRMMSFEDKDKDDLDNSNSNNSSEMTDTAMMPPLKRLLITGSSDDLAQGSSGKKKMTMATRSPSSSPDLATNDSGTRVQPLPEYNFTKFCYRHNPDIQFSPTHTACYKQDLKRTQEINANIAKLPLQEQSDIHHIISKYSNSNDKIRKLILDGILSTSCFPQLSYISSLVTHMIKIDFISILPQELSLKILSYLDCQSLCNATRVCRKWQKLADDDRVWYHMCEQHIDRKCPNCGWGLPLLHMKRARIQQNSTGSSSNADIQTQTTRPWKVIYRERFKVESNWRKGHCRIQEFKGHMDGVLTLQFNYRLLFTGSYDSTIGIWDLFTGKLIRRLSGHSDGVKTLYFDDRKLITGSLDKTIRVWNYITGECISTYRGHSDSVLSVDSYQKVIVSGSADKTVKVWHVESRTSYTLRGHTEWVNCVKLHPKSFSCFSCSDDTTIRMWDIRTNSCLKVFRGHVGQVQKIIPLTIKDVENLATDNTSDGSSPQDDPTMTDGADESDTPSNEQETVLDENIPYPTHLLSCGLDNTIKLWDVKTGKCIRTQFGHVEGVWDIAADNFRIISGSHDGSIKVWDLQSGKCMHTFNGRRLQRETQHTQTQSLGDKVAPIACVCIGDSECFSGDEFGCVKMYKFDLND
notes: Met30, F-box protein, Saccharomyces cerevisiae (CEN.PK background), with the point mutation C414S; whole gene locus with tag transformed into yeast; source: S. cerevisiae CEN.PK mutant strain grown in rich media, immunopurified on anti-FLAG M2 magnetic beads; not shown: Flag, C-terminal, kept
B3: Met30 C614/616/622/630S (Flag-tagged) (natural protein, S. cerevisiae, UniProt P39014 1-640, looked up)
chain: MRRERQRMMSFEDKDKDDLDNSNSNNSSEMTDTAMMPPLKRLLITGSSDDLAQGSSGKKKMTMATRSPSSSPDLATNDSGTRVQPLPEYNFTKFCYRHNPDIQFSPTHTACYKQDLKRTQEINANIAKLPLQEQSDIHHIISKYSNSNDKIRKLILDGILSTSCFPQLSYISSLVTHMIKIDFISILPQELSLKILSYLDCQSLCNATRVCRKWQKLADDDRVWYHMCEQHIDRKCPNCGWGLPLLHMKRARIQQNSTGSSSNADIQTQTTRPWKVIYRERFKVESNWRKGHCRIQEFKGHMDGVLTLQFNYRLLFTGSYDSTIGIWDLFTGKLIRRLSGHSDGVKTLYFDDRKLITGSLDKTIRVWNYITGECISTYRGHSDSVLSVDSYQKVIVSGSADKTVKVWHVESRTCYTLRGHTEWVNCVKLHPKSFSCFSCSDDTTIRMWDIRTNSCLKVFRGHVGQVQKIIPLTIKDVENLATDNTSDGSSPQDDPTMTDGADESDTPSNEQETVLDENIPYPTHLLSCGLDNTIKLWDVKTGKCIRTQFGHVEGVWDIAADNFRIISGSHDGSIKVWDLQSGKCMHTFNGRRLQRETQHTQTQSLGDKVAPIASVSIGDSESFSGDEFGSVKMYKFDLND
notes: Met30, F-box protein, Saccharomyces cerevisiae (CEN.PK background), with four cysteine to serine mutations in the WD-40 repeat region; whole gene locus with tag transformed into yeast; source: S. cerevisiae CEN.PK mutant strain grown in rich media, immunopurified on anti-FLAG M2 magnetic beads; not shown: Flag, C-terminal, kept

Each binder was assayed against T1, His-SUMO-Met4-Strep-tagII-HA (assay: pull-down; Met30-Flag complex isolated on anti-FLAG M2 protein G dynabeads from lysate of rich or -sulfur cells with 1 mM DTT, 1 mM diamide or nothing added; beads washed, then incubated with 1 ug purified recombinant Met4 in 1 mL IP buffer (50 mM Tris pH 7.5, 150 mM NaCl, 1% NP-40) with or without 1 mM DTT, 2 h, 4°C; Western blots for Met4 and Met30; mutants from cells grown in rich media). Conditions: both partners purified.

Binding result, binds:
B1
B2
B3

— paper doi:10.1101/2021.01.06.425657, “The SCF^Met30 ubiquitin ligase senses cellular redox state to regulate the transcription of sulfur metabolism gene” (bioRxiv, 2021)
